This is an account of results in US20030165997, “Zinc finger domain libraries” (published 2003).

What is called Kd is the free concentration of one partner at which half of the binding sites on the other are occupied at equilibrium, for simple one-to-one binding. Read a high Kd as a looser complex.

For data set [1], the target named is ZFP 7 RDHT-QSNV2-RSHR (synthetic). Description: cell_activity; HEK293 luciferase repression. The settings on record: tags: HA tag and NLS (P3 vector). How it is done: (§1) The in vivo activity assay for a particular three-finger protein was carried out as follows. HEK 293 cells were transfected with four plasmids: 14 ng of a plasmid expressing the particular three-finger protein; 14 ng of the reporter plasmid described above; 70 ng of a plasmid that expresses GAL4-VP 16; and 1.4 ng of a plasmid that expresses Renillar luciferase. The GAL4-VP 16 activates transcription of the minimal synthetic promoter in the reporter so that the repression effected by a particular three-finger protein could be clearly detected and compared to other three-finger proteins. The plasmid expressing Renillar luciferase provides a control of transfection efficiency.
(§2) Lipofectamine (Gibco-BRL) was used for the transfection procedures. Cells were transfected at 30-50% confluency in wells of a 96 well plate. The cells were incubated for two days prior to harvesting for the luciferase assay. Then luciferase activities were measured using the Dual-Luciferase™ Reporter Assay System (Promega). The observed firefly luciferase activity was normalized using the observed level of Renilla luciferase. The extent of repression or “fold-repression” was calculated by dividing a value for normalized reporter expression in the absence of a zinc finger protein by a value for normalized reporter expression in the presence of the zinc finger protein.
(§3) A total of 153 three-finger chimeric proteins were constructed from both the “zinc finger protein-first” and the “target site-first” approaches. These proteins were tested using the transient cotransfection assay described in Example 68.

Data set [2] concerns the target ZFP 2 CSNR1-RSHR-RDHT (synthetic). Description: cell_activity; HEK293 luciferase repression. The settings on record: tags: HA tag and NLS (P3 vector). As for the experimental part: as §1, §2, §3
Data set [3] deals with ZFP 32 QSNV2-RSNR-RDHT (Homo sapiens). Description: cell_activity; HEK 293 luciferase. As to conditions: tags: HA, NLS. How it is done:
as §1, §2, §3

The target of data set [4] is ZFP 18 RDER1-QSSR1-QSHT (synthetic). Description: cell_activity; HEK293 luciferase repression. As to conditions: tags: HA tag and NLS (P3 vector). How it is done: as §1, §2, §3
For data set [5], the target named is T1, Zif268 zinc finger protein (three fingers) (UniProt P08046 SEQ:1-89). Description: EMSA; Zn2+, Mg2+, pH 7.7, RT; no yeast growth; 1.2-fold repression (Table 8). On the technique in general: A gel shift assay detects complexes by their altered migration in electrophoresis.
For data set [6], the target named is T1, Zif268 zinc finger protein (three …). Description: EMSA; 20 mM Tris pH 7.7, 120 mM NaCl, 5 mM MgCl2, 20 uM ZnSO4, RT; yeast growth +++; 28-fold repression in human cells (Table 8).
In data set [7] the target is ZFP 13 QSHR2-RDER1-RSNR (synthetic). Description: cell_activity; HEK293 luciferase repression. As to conditions: tags: HA tag and NLS (P3 vector). As for the experimental part: as §1, §2, §3
In data set [8] the target is ZFP 3 RDHT-QSNV2-QSSR1 (synthetic). Description: cell_activity; HEK293 luciferase repression. As to conditions: tags: HA tag and NLS (P3 vector). How it is done: as §1, §2, §3
In data set [9] the target is T1, Zif268 zinc finger protein (three …). Description: EMSA; Zn2+, Mg2+, pH 7.7, RT; no yeast growth; 1.3-fold repression (Table 8).
In data set [10] the target is ZFP 29 QSNR3-RDHT-RSNR (synthetic). Description: cell_activity; HEK293 luciferase repression. The settings on record: tags: HA tag and NLS (P3 vector). How it is done:
as §1, §2, §3

For data set [11], the target named is ZFP 30 RSHR-RSHR-QSHR2 (synthetic). Description: cell_activity; HEK293 luciferase repression. The settings on record: tags: HA tag and NLS (P3 vector). As for the experimental part: as §1, §2, §3
The target of data set [12] is ZFP 15 VSNV-CSNR1-RSNR (synthetic). Description: cell_activity; HEK293 luciferase repression. As to conditions: tags: HA tag and NLS (P3 vector). As for the experimental part:
as §1, §2, §3

In data set [13] the target is ZFP 26 QSNR3-QSNV2-RSHR (synthetic). Description: cell_activity; HEK293 luciferase repression. The settings on record: tags: HA tag and NLS (P3 vector). As for the experimental part:
as §1, §2, §3

The target in data set [14] is ZFP 8 RSNR-QSHR2-QSSR1 (synthetic). Description: cell_activity; HEK293 luciferase repression. As to conditions: tags: HA tag and NLS (P3 vector). As for the experimental part: as §1, §2, §3
Data set [15] has as its target T1, Zif268 zinc finger protein (three …). Description: EMSA; Zn2+, Mg2+, pH 7.7, RT; yeast growth ++; 5.9-fold repression (Table 8).
The target of data set [16] is ZFP 12 QSSR1-QSNV2-RSNR (synthetic). Description: cell_activity; HEK293 luciferase repression. As to conditions: tags: HA tag and NLS (P3 vector). As for the experimental part:
as §1, §2, §3

Chain of ZFP 2 CSNR1-RSHR-RDHT (synthetic) (chain, as listed by the source): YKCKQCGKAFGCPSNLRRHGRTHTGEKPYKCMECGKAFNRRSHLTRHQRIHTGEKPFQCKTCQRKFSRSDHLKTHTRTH
Chain of ZFP 30 RSHR-RSHR-QSHR2 (synthetic) (chain, as listed by the source): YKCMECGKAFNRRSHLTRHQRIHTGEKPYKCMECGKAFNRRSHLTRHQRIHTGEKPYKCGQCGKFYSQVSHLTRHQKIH
Chain of ZFP 3 RDHT-QSNV2-QSSR1 (synthetic) (chain, as listed by the source): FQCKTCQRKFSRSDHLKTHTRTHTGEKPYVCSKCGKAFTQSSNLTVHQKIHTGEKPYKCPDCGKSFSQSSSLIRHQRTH
Chain of ZFP 8 RSNR-QSHR2-QSSR1 (synthetic) (chain, as listed by the source): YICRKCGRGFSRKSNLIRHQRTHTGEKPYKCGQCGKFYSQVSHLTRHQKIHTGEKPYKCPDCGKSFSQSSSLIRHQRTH
Chain of ZFP 13 QSHR2-RDER1-RSNR (synthetic) (chain, as listed by the source): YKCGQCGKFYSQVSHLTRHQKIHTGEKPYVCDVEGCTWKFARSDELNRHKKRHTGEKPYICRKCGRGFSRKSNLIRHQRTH
Chain of ZFP 29 QSNR3-RDHT-RSNR (synthetic) (chain, as listed by the source): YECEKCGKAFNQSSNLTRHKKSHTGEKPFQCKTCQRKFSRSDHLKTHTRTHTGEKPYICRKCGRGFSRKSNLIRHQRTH
Chain of ZFP 7 RDHT-QSNV2-RSHR (synthetic) (chain, as listed by the source): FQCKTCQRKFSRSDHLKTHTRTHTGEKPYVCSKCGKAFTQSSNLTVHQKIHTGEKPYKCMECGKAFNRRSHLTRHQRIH
Chain of ZFP 18 RDER1-QSSR1-QSHT (synthetic) (chain, as listed by the source): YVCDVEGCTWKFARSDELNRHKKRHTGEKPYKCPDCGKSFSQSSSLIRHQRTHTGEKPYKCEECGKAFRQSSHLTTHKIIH
Chain of ZFP 26 QSNR3-QSNV2-RSHR (synthetic) (chain, as listed by the source): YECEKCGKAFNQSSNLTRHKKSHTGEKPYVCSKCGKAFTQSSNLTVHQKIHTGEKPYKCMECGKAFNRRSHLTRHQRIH
Chain of ZFP 15 VSNV-CSNR1-RSNR (synthetic) (chain, as listed by the source): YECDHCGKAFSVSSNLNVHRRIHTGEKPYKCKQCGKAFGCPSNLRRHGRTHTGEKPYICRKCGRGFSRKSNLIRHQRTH
Chain of ZFP 12 QSSR1-QSNV2-RSNR (synthetic) (chain, as listed by the source): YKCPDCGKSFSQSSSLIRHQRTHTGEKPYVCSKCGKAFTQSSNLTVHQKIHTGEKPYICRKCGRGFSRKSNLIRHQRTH
Chain of ZFP 32 QSNV2-RSNR-RDHT (Homo sapiens) (chain, as listed by the source): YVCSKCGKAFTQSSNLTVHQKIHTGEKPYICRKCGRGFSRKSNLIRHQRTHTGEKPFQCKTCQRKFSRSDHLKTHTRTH

B1: target 7 (dsDNA)
DNA 1: GGGAAACGGG
DNA 2: CCCGTTTCCC
Molecule B1 registered an activity in data set [1] of 3.6 fold repression.

B2: target 2 (dsDNA)
DNA 1: TGGGGGGACA
DNA 2: TGTCCCCCCA
In the case of B2, the activity in [2] was determined as 4.5 fold repression.

B3: target 32 (dsDNA)
DNA 1: GGGGAGAAA
DNA 2: TTTCTCCCC
In the case of B3, the activity in data set [3] was determined as 1.9 fold repression.

B4: target 18 (dsDNA)
DNA 1: CGAGCAGCG
DNA 2: CGCTGCTCG
In [4], B4 came in with an activity of 2.2 fold repression.

B5: GACT probe (dsDNA)
DNA 1: CCGGGTCGGGACTGGGCGGTACCG
DNA 2: TCGACGGTACCGCCCAGTCCCGAC
As to B5, the Kd in data set [5] was found to be 4.9 nM.

B6: GCGT probe (dsDNA)
DNA 1: CCGGGTCGCGCGTGGGCGGTACCG
DNA 2: TCGACGGTACCGCCCACGCGCGAC
B6 returned a Kd in data set [6] of 0.024 nM.

B7: target 13 (dsDNA)
DNA 1: GAGGTGGGAG
DNA 2: CTCCCACCTC
The molecule B7 showed an activity in data set [7] of 2.8 fold repression.

B8: target 3 (dsDNA)
DNA 1: GCACAATGG
DNA 2: CCATTGTGC
On to B8, for which, in data set [8], the activity came out at 4 fold repression.

B9: ACAT probe (dsDNA)
DNA 1: CCGGGTCGGACATGGGCGGTACCG
DNA 2: TCGACGGTACCGCCCATGTCCGAC
Turning to B9, the Kd in data set [9] was found to be 1.3 nM.

B10: target 29 (dsDNA)
DNA 1: GAGTGGGAAA
DNA 2: TTTCCCACTC
In the case of B10, the activity in data set [10] worked out at 2 fold repression.

B11: target 30 (dsDNA)
DNA 1: GGAGGGGGGC
DNA 2: GCCCCCCTCC
As to B11, in data set [11], the activity was 2 fold repression.

B12: target 15 (dsDNA)
DNA 1: GAGGACAATG
DNA 2: CATTGTCCTC
For B12, the activity in data set [12] came to 2.5 fold repression.

B13: target 26 (dsDNA)
DNA 1: GGGAAAGAAC
DNA 2: GTTCTTTCCC
Turning to B13, the activity in [13] amounted to 2 fold repression.

B14: target 8 (dsDNA)
DNA 1: GTAGGAGAGT
DNA 2: ACTCTCCTAC
As to B14, the activity in data set [14] was 3.3 fold repression.

B15: GAGT probe (dsDNA)
DNA 1: CCGGGTCGGGAGTGGGCGGTACCG
DNA 2: TCGACGGTACCGCCCACTCCCGAC
In data set [15], B15 had a Kd of 0.17 nM.

B16: target 12 (dsDNA)
DNA 1: GAGCAAGTAG
DNA 2: CTACTTGCTC
In data set [16], B16 displayed an activity of 2.9 fold repression.
